From US20240035010, “COMPOSITIONS COMPRISING A VARIANT POLYPEPTIDE AND USES THEREOF” (Arbor Biotechnologies, Inc., published 2024)
Positions count from the first letter of the chain named.

Experiments:
Experiment in all cases: cell_activity; PAM 5'-ATTG-3'
Settings in all cases: tags: pcDNA3.1 expression
[1] = molecular target: T1, variant nuclease D590G combination (P14R, D32R, I61R, E311R, D590G)
T1 chain: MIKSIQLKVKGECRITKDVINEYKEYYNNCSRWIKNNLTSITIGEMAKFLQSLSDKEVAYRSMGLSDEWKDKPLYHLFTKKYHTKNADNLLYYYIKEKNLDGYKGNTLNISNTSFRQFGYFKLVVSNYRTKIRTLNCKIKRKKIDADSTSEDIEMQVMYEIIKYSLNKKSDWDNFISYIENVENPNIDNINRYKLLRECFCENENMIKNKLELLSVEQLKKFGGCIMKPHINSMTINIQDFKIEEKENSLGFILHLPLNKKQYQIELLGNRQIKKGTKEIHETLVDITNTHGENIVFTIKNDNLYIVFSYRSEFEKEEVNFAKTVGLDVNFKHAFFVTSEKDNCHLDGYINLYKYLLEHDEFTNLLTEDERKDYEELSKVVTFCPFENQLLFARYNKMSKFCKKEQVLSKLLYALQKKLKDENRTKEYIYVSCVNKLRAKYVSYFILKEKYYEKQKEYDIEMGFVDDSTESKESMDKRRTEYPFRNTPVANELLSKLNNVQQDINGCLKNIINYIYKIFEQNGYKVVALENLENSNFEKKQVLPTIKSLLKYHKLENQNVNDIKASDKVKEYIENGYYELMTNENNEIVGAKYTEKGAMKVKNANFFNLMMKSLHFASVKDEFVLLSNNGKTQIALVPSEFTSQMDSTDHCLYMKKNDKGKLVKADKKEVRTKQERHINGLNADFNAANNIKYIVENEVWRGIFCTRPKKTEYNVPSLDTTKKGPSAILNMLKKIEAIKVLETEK

[2] = molecular target: T2, variant nuclease 7 substitutions D590G/E154G/E736G (P14R, D32R, I61R, E311R, D590G, E154G, E736G)
T2 chain: T1 chain with E154G, E736G

[3] = molecular target: T3, variant nuclease D55G/E736G combination (P14R, D32R, I61R, E311R, D55G, E736G)
T3 chain: T1 chain with D55G, G590D, E736G

B1: EMX1 crRNA ; EMX1 target (ssRNA ; dsDNA)
RNA: CUUGUUGUAUAUGUCCUUUUAUAGGUAUUAAACAACCCGCCGCUUCCUGAGCCAUC
DNA 1: CCGCCGCTTCCTGAGCCATC
DNA 2: GATGGCTCAGGAAGCGGCGG
[1]
  indel editing activity: 7.43 fold of WT
[2]
  indel editing activity: 10.7 fold of WT
[3]
  indel editing activity: 10.5 fold of WT
